# Numbering of substitutions follows the chain as printed.
# B1: LK-RB1-39 (antibody, human IgG4 S228P, kappa, V domains shown)
# VH: EVQLQQSGAELVRPGASVKLSCTASGFNIKDDYVHWVNQRPEQGLEWIGWIDPENGDTGYASKFQDKATITADTSSNTAYLHLSSLTSEDTAVYYCTTTRWTGSYWGQGTTLTVSS
# VL: QIVLTQSPAIMSASPGEKVTITCSASSSVNYMHWFQQKPGSSPKLWIYSTANLASGVPARFSGSGSGTSYSLTISRMEAEDAATYYCQQRSSYPPTWTFGGGTKLEIKR
# notes: Anti-LILRB1 antibody
# B2: LK-RB2-47 (antibody, human IgG4 S228P, kappa, V domains shown)
# VH: QVQLKQSGPGLVQPSQSLSITCTVSGFSLISYGVHWVRQSPGKGLEWLGVIWSGGSTDYNAAFISRLSISKDNSKSQVFFKMNSLQADDTAIYYCARSFHYHGSTFDYWGQGTTLTVSS
# VL: DIQMTQTTSSLSASLGDRVIISCRASQDINNYLNWYQQKPDGTVKLLIYFTSRLHSGVPSSFSGSGSGTDYSLTINNLEQEDIATYFCQQVNTLPYTFGGGTKLEIKR
# notes: Anti-LILRB2 antibody
# B3: LK-RB1-59 (antibody, human IgG4 S228P, kappa, V domains shown)
# VH: QIQLVQSGPELKKPGETVKISCKASGYTFTTYGMSWVKQAPGKGLKWMGWINTYSGVPTYADDFKGRFAFSLETSASTAYLQINNLKNEDTATYFCARRRIYYGNKGYAMDYWGQGTSVTVSS
# VL: DIQMTQSPASLSVSVGETVTITCRASENIYSNLVWYQQKQGKSPQLLVYTATNLADGVPSRFSGSGSGTQFSLKINSLQSEDFGSYYCQHFWGTPWTFGGGTKLEIKR
# notes: anti-LILRB1 clone from mouse hybridoma
# B4: LK-RB1-3 (antibody, human IgG4 S228P, kappa, V domains shown)
# VH: QVQLQQPGAELVKPGTSVNLSCKASGYTFTSYWIHWVKQRPGRGLEWIGRINPYSSGTRYNEKFKNKATLTVDKPSSTAYMQLTSLTSEDSAVYYCARFDGAPDYFDFWGQGTTLTVSS
# VL: DIVMTQSQKFMPTSVGDRVNVTCKASQNVGINVAWYQQKLGQSPKALIYSASYRYSGVPDRFTGSGSGTDFTLTINSVQSEDLADYFCQQYNNYPFTFGSGTKLEIKR
# notes: anti-LILRB1 antibody
# B5: LK-RB1-5 (antibody, human IgG4 S228P, kappa, V domains shown)
# VH: QVQLQQPGAELVKPGASVKLSCKASGYTFTDFWIHWVKQRPGQGLEWIGMIHPNSGSTNFNEKFRAKATLTVDKSSSTAYMRLSSLTSEDSAVYYCARSGDGYSNPMDYWGQGTSVTVSS
# VL: QIVLSQSPAILSASPGEKVTLTCRASSSVSYMHWYQQKPGSSPKPWIYATSNLASGVPVRFSGSGSGTSYSLTISRMQTEDAATYYCQQWRRSPYTFGGGTKLEIKR
# notes: Anti-LILRB1 antibody
# B6: LK-RB2-24 (antibody, human IgG4 S228P, kappa, V domains shown)
# VH: QIQLVQSGPEVKKPGETVKISCKASGYTFTTYGMSWVKQAPGKGLKWMGWLNIYSGVPAYADDFKGRFAFSLESSASTAYLQINNLKNEDTATYFCARRENYDGYGMDYWGQGTSVTVSS
# VL: DIVMTQSPATLSVTPGDRVSLSCRASQSISDYLHWYQQKSHESPRLLIKYASQSISGIPSRFSGSGSGSDFTLSINSVEPEDVGVYYCQNGHSFPYTFGGGTKLEIKR
# B7: LK-RB2-24 (antibody, human IgG4 S228P, kappa, V domains shown)
# VH: B6 VH
# VL: B6 VL
# notes: Anti-LILRB2 antibody from mouse hybridoma; parental antibody of LK-RB2-24.h1 to h3
# B8: LK-RB1-4 (antibody, human IgG4 S228P, kappa, V domains shown)
# VH: QVQLQQPGAELVKPGASVKLPCKTSGYTFTSYWMHWVKQRPGRGLEWIGRIDPHYSGTKYNEKFKNKATMTVDTPSSTAYMQLSSLTSEDSAVYYCARFDGDPYYFDYWGPGTTLTVSS
# VL: DIVMTQSQKFMSTSVGDRVSVTCKASQNVGTNVAWYKQKAGQSPKAVIYSASYRYSGVPDRFTGSGSGTDFTLSISNVQSEDLAEYFCQQYNNNPFTFGSGTKLEIKR
# notes: anti-LILRB1 antibody
# B9: LK-RB1-35 (antibody, human IgG4 S228P, kappa, V domains shown)
# VH: DVQLQESGPGLEKPSQSLSLTCSVTGYSITRGYQWNWIRQFPGNKLEWMGYISYDGSNNYNPSLKNRISITRDASKNQFFLKLNSVTTEDTATYYCARRSYNSIDYWGQGTTLTVSS
# VL: DIVLTQSPATLSVTPGDSVSLSCRASQSISSNLHWYQQKSHESPRLLIKYASQSISGIPSRFSGSGSGTDFTLSINSVETEDFGMYFCQQSNSWPLTFGAGTKLELKR
# notes: as for B3
# B10: LK-RB1-48 (antibody, human IgG4 S228P, kappa, V domains shown)
# VH: EVKLVESGGGLVQPGGSLKLSCAASGFTFSDYYMYWVRQTPEKRLEWVAYISNGGGISFYPDTVKGRFTISRDNAKNTLYLQMSRLKSEDTAIYYCASATKEVGAMDYWGQGTSVTVSS
# VL: DIVMTQSQKFLSTTVGDRVSITCKASQNVGTAVAWYQQKPGQSPKILIYSASNRYTGVPDRFTGSGSGTDFTLTISNMQSEDLADYFCQQYSSYRTFGGGTKLEIKR
# notes: as for B3
# B11: LK-RB1-55 (antibody, human IgG4 S228P, kappa, V domains shown)
# VH: B10 VH with G56D, S58T, K76R, N77S, K101T, Y108H
# VL: B10 VL with L11M, Q42K, I46L, S50A, K102N
# notes: as for B3
# B12: LK-RB2-8 (antibody, human IgG4 S228P, kappa, V domains shown)
# VH: QIQLVQSGPELKKPGETVKISCKASGYSFASYGMGWVKQAPGKGLKWLGWINTHSGVPTYADDFKGRFAFSLETSASTAYLQINNLKNEDTATYFCAHYGRPWFPYWGQGTLVTVSA
# VL: DIQMTQSPASLSASVGETVTITCRTSENIYSYLAWYQQKQGKSPQLLVYNAKSLAEGVPSRFSGSGSGTQFSLRINSLQPEDFGTYYCQQHYETPLTFGAGTKLELKR
# notes: Anti-LILRB2 antibody
# B13: LK-RB2-16 (antibody, human IgG4 S228P, kappa, V domains shown)
# VH: B12 VH with S28T, A30T, S31T, G42E, L48M, H54N, V57A, A61G, P105A
# VL: B12 VL with T25A, Q37H, K42E, S53T, R74K, T85S, Q90H, E93N, T94I
# notes: Anti-LILRB2 antibody
# B14: LK-RB1-33 (antibody, human IgG4 S228P, kappa, V domains shown)
# VH: QIQLVQSGPELKKPGDTVKISCKASGYTFTSYGMNWVKQAPGEGLKWMGWINTYSGVPTYGDDFKGRFAFSLETSASTAYLQINNLENEDTATYFCARRGRDSVVGHFDVWGTGTTVTVSS
# VL: DIVMTQSHKFMSTSVGDRVSITCKASQDVNTAVAWYQQKPGQSPKLLIYWASTRHTGVPDRFTGSGSGTDFTLTISSVQAEDLALYYCQQHYTIPFTFGSGTRLEIKR
# notes: as for B3
# B15: LK-RB1-47 (antibody, human IgG4 S228P, kappa, V domains shown)
# VH: QIQLVQSGPELKKPGETVKISCKASGYTFTTYGMSWVKQAPGKGLKWMGWINTYSGVPTYTDDFKGRFAFSVETSASTAYLQINNLKNEDTATYFCARRERDFYGNIFFPYWGQGSLVTVSA
# VL: DIQMTQTTSSLSASLGDRVTISCRASQDISNYLNWYQQKPDGTVKLLIYYTSRIHSGVPSRFSGSGSGTDFSLTISNLDQEDIATYFCQQGHTLPWTFGGGTKVEIKR
# notes: as for B3
# B16: 15G8 (antibody, human IgG4 S228P, kappa, V domains shown)
# VH: DVQLQGSGPGLVKPSETLSLTCSVTGYSITSGYYWNWIRQFPGKKLEWMGYISYDGSNNYNPSLKNRITISRDTSKNQFSLKLNSVTAADTATYYCAHGYSYYYAMDAWGQGTSVTVSS
# VL: DIQMTQSPSSLSASVGDRVTITCRTSQDISNYLNWYQQKPGKAVKLLISYTSRLHSGVPSRFSGSGSGTDYTLTISSLQPEDFATYYCQQGNTLPTFGQGTKLEIKR
# How the values were obtained:
# [1] = target: T1, Cynomolgus LILRB2 on CHOK1 cells (cynomolgus); experiment: flow cytometry on CHOK1-cyno LILRB2 cells
# T1 construct: whole, on cells; also called CHOK1-Cyno LILRB2
# From the text: Anti-LILRB1 and anti-LILRB2 antibodies were also screened for their ability to bind rhesus macaque LILRB1 (Kactusbio, LLC: LIL-CM1B1 and LIL-CM1B3), cynomolgus LILRB1 (Kactusbio, LLC: LIL-CM1B2) and cynomolgus LILRB2 (Kactusbio, LLC: LIL-CM1B5) by ELISA and flow cytometry.
# [2] = target: T2, human LILRA2 (human, UniProt Q8N149 24-449); experiment: ELISA, OD450, antibody at 200 nM; + = 2-fold over ISO
# T2 construct: bought protein coated for ELISA; also called hLILRA2
# Method: (§1) To further confirm binding affinity, selected clones were assayed in ELISA or FACS in a range of testing concentrations.
# [3] = target: T3, human LILRA1 (human, UniProt O75019 17-461, limits assumed); experiment: as above
# T3 construct: bought protein coated for ELISA; also called hLILRA1
# T3 sequence (O75019 17-461 limits assumed): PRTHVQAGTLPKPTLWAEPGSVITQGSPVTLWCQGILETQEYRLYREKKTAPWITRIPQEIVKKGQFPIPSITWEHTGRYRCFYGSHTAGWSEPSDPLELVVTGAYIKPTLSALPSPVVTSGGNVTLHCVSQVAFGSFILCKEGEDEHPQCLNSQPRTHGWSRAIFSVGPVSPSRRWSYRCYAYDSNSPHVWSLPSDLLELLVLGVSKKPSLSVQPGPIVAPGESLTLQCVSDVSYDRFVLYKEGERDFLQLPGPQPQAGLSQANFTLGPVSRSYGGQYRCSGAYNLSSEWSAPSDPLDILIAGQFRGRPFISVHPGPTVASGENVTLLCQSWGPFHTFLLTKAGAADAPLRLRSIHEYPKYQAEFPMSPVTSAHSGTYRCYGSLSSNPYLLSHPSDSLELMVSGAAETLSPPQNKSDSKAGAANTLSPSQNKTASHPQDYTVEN
# Method: as §1
# [4] = target: T4, human LILRA3 (human, UniProt Q8N6C8 24-439); experiment: as above
# T4 construct: bought protein coated for ELISA; also called hLILRA3
# Method: as §1
# [5] = target: T5, Rhesus LILRB1 (F7H3G7) on CHOK1 cells (rhesus macaque); experiment: flow cytometry on CHOK1-rhesus LILRB1 (F7H3G7) cells
# T5 construct: whole, on cells; also called CHOK1-Rhesus LILRB1 (F7H3G7)
# [6] = target: T6, human LILRA1 (human, UniProt O75019 17-461, limits assumed); experiment: ELISA, antibody at 200 nM, OD450; + = 2-fold over ISO
# T6 construct: Bought protein; also called hLILRA1
# T6 sequence (O75019 17-461 limits assumed): as above
# Method: as §1
# [7] = target: T7, Biotinylated LILRB2 (UniProt Q8N423 22-460, limits assumed, biotinylated (sites not given)); experiment: epitope binning ELISA; coated antibody 1 ug/ml, biotinylated LILRB2; competitor LK-RB2-15 at 20 ug/ml
# T7 construct: also called biotinylated-LILRB2 protein
# [8] = target: T7, Biotinylated LILRB2; experiment: epitope binning ELISA; coated antibody 1 ug/ml, biotinylated LILRB2; competitor hz73D1.v1 at 20 ug/ml
# Method: (§2) Binding epitope of a subset of anti-LILRB1 and anti-LILRB2 antibodies was analyzed by epitope binning ELISA. Briefly, a panel of testing antibodies were coated onto ELISA plate. 50 ul/well Biotinylated LILRB1 or LILRB2 and 50 ul/well of competing antibodies were added to the coated plate and incubated at 37° C. for 1 hour. After Streptavidin-HRP (1:5000) incubation and TMB development, the plates were read at 450 nm using Molecular device spectra max plus384.
# [9] = target: T7, Biotinylated LILRB2; experiment: epitope binning ELISA; coated antibody 1 ug/ml, biotinylated LILRB2; competitor LK-RB2-2 at 20 ug/ml
# Method: as §2
# [10] = target: T8, human LILRB2-his (human, UniProt Q8N423 22-460, limits assumed); experiment: SPR (Biacore 8K), antibody captured via Fc, LILRB2-his as analyte, 1:1 model
# T8 construct: Analyte of the Biacore run; not shown: His tag
# [11] = target: T7, Biotinylated LILRB2; experiment: epitope binning ELISA; coated antibody 1 ug/ml, biotinylated LILRB2; competitor LK-RB2-24 at 20 ug/ml
# Method: as §2
# [12] = target: T7, Biotinylated LILRB2; experiment: epitope binning ELISA; coated antibody 1 ug/ml, biotinylated LILRB2; competitor LK-RB2-3 at 20 ug/ml
# Method: as §2
# [13] = target: T9, human LILRB1-his (human, UniProt Q8NHL6 24-458, limits assumed); experiment: SPR (Biacore 8K), antibody captured via Fc, LILRB1-his as analyte, 1:1 model
# T9 construct: Analyte of the Biacore run; not shown: His tag
# [14] = target: T7, Biotinylated LILRB2; experiment: epitope binning ELISA; coated antibody 1 ug/ml, biotinylated LILRB2; competitor J19.h1 at 20 ug/ml
# Method: as §2
# [15] = target: T7, Biotinylated LILRB2; experiment: epitope binning ELISA; coated antibody 1 ug/ml, biotinylated LILRB2; competitor LK-RB2-14 at 20 ug/ml
# Method: as §2
# [16] = target: T10, human LILRB5 (human, UniProt O75023 24-458); experiment: ELISA, OD450, antibody at 200 nM; + = 2-fold over ISO
# T10 construct: bought protein coated for ELISA; also called hLILRB5
# Method: as §1
# [17] = target: T11, human LILRB3 (human, UniProt O75022 24-443); experiment: as above
# T11 construct: bought protein coated for ELISA; also called hLILRB3
# Method: as §1
# T7 sequence (Q8N423 22-460 limits assumed): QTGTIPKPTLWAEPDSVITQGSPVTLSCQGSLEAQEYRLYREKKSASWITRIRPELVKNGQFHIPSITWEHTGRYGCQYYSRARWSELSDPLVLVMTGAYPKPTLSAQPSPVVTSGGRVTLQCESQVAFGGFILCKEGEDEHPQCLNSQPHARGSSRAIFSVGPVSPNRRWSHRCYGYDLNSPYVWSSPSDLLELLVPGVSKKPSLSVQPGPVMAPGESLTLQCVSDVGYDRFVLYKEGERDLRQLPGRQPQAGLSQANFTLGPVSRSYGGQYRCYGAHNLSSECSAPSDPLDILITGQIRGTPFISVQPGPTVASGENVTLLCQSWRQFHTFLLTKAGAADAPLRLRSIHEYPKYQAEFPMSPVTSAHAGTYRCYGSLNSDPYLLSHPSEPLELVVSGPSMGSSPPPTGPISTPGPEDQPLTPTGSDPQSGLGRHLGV
# T8 sequence (Q8N423 22-460 limits assumed): as above
# T2 sequence (Q8N149 24-449 limits assumed): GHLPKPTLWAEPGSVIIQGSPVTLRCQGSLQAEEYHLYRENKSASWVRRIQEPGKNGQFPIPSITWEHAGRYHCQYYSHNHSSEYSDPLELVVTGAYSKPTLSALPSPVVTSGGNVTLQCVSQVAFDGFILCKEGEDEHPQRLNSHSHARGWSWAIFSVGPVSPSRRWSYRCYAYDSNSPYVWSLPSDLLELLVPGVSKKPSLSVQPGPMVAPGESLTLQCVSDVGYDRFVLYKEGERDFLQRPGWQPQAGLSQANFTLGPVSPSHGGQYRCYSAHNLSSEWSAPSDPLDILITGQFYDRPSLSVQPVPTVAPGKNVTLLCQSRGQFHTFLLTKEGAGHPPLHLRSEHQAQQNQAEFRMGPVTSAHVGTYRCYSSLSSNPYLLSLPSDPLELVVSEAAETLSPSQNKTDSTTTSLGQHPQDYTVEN
# T9 sequence (Q8NHL6 24-458 limits assumed): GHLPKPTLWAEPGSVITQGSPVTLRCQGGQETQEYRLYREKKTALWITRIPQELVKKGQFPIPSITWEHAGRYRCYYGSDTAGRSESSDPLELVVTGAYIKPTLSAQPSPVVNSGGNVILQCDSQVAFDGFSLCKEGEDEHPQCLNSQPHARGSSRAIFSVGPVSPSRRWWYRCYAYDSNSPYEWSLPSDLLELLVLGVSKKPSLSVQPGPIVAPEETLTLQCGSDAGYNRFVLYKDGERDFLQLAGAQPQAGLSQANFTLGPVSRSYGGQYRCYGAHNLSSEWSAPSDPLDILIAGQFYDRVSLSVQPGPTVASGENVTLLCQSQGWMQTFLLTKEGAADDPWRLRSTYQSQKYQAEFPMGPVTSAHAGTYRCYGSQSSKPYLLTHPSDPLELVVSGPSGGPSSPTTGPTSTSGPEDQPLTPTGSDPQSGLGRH
# T4 sequence (Q8N6C8 24-439 limits assumed): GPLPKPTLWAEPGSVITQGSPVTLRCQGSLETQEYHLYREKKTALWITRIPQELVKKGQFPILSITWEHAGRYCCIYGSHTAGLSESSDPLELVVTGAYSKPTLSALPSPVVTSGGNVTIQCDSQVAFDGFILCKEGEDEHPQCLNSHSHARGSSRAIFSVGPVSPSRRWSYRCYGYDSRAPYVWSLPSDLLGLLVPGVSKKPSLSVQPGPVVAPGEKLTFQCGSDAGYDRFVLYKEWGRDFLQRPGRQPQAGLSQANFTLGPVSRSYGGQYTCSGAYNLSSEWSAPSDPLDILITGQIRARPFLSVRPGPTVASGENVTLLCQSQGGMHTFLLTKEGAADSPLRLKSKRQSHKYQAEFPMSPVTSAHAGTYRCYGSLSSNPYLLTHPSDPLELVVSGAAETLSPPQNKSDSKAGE
# T10 sequence (O75023 24-458 limits assumed): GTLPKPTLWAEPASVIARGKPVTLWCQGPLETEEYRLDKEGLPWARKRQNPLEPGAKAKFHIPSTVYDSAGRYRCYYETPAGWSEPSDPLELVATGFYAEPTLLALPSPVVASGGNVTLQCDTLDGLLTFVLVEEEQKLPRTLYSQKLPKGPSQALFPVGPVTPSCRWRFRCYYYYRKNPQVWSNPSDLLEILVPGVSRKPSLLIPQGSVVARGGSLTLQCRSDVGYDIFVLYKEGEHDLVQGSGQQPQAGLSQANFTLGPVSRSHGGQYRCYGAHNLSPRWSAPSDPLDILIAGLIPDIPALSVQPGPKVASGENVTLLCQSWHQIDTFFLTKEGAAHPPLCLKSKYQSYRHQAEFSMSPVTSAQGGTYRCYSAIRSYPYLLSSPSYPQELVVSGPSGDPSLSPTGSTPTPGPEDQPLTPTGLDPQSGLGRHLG
binder,measurement,setting,value
B1,EC50,[1],0.36 nM
B2,EC50,[1],0.4 nM
B3,binding result,[2],binds
same,binding result,[3],binds
B4,binding result,[4],binds
B5,EC50,[1],1.16 nM
same,EC50,[5],1.51 nM
B6,binding result,[6],binds
B7,Inhibition %,[7],95.2%
same,Inhibition %,[8],22.1%
same,Inhibition %,[9],48.4%
same,Kd,[10],0.51 nM
same,koff,[10],0.000484 s⁻¹
same,kon,[10],950000 M⁻¹ s⁻¹
same,Inhibition %,[11],95.7%
same,Inhibition %,[12],25.9%
same,Kd,[13],21.1 nM
same,koff,[13],0.00406 s⁻¹
same,kon,[13],192000 M⁻¹ s⁻¹
same,Inhibition %,[14],-4.04%
same,Inhibition %,[15],91.1%
B8,binding result,[4],binds
B9,binding result,[16],binds
same,binding result,[17],binds
B10,binding result,[3],binds
B11,binding result,[3],binds
B12,EC50,[1],19.8 nM
B13,EC50,[1],5.45 nM
B14,binding result,[2],binds
B15,binding result,[2],binds
same,binding result,[3],binds
B16,EC50,[1],2.15 nM
same,EC50,[5],760 nM
